Data taken from the RNAGym collection of RNA variant scans (doi:10.7554/elife.80360).

B1: HDV Ribozyme (parent)
chain: GGCCGGCAUGGUCCCAGCCUCCUCGCUGGCGCCGGCUGGGCAACAUUCCGAGGGGACCGUCCCCUCGGUAAUGGCGAAUGGGACCCA

Variants of: B1
Experiment: self-cleavage, relative activity (ratio to wild type); higher = more cleavage; co-transcriptional

Row | Variant | self-cleavage
1 | GGCCGGCAUGGUCCCAGCCUCCUCGCUGGCGCCGGCUGGGCAACAUUCCGAGGGGACCGUCCCCUCGGUAAUGGUGAAAGGGACCCA | 0.151
2 | GGCCGGCAUGGUCCCAGCCUCCUCGCUGGCGCCGGCUGGGCAACAUUCCGAGGGGACCGUCCCCUCGGUAAUGGUGAAGGGGACCCA | 0.0594
3 | GGCCGGCAUGGUCCCAGCCUCCUCGCUGGCGCCGGCUGGGCAACAUUCCGAGGGGACCGUCCCCUCGGUAAUGGUGAGUGGGACCCA | 0.214
4 | GGCCGGCAUGGUCCCAGCCUCCUCGCUGGCGCCGGCUGGGCAACAUUCCGAGGGGACCGUCCCCUCGGUAAUGGUGAUUGGGACCCA | 0.264
5 | GGCCGGCAUGGUCCCAGCCUCCUCGCUGGCGCCGGCUGGGCAACAUUCCGAGGGGACCGUCCCCUCGGUAAUGGCAAAUGGGGCCCA | 0.992
6 | GGCCGGCAUGGUCCCAGCCUCCUCGCUGGCGCCGGCUGGGCAACAUUCCGAGGGGACCGUCCCCUCGGUAAUGGCAAAUGGGCCCCA | 0.539
7 | GGCCGGCAUGGUCCCAGCCUCCUCGCUGGCGCCGGCUGGGCAACAUUCCGAGGGGACCGUCCCCUCGGUAAUGGUGAAUGGGAGCCA | 0.136
8 | GGCCGGCAUGGUCCCAGCCUCCUCGCUGGCGCCGGCUGGGCAACAUUCCGAGGGGACCGUCCCCUCGGUAAUGGUGAAUGGGAACCA | 0.237
9 | GGCCGGCAUGGUCCCAGCCUCCUCGCUGGCGCCGGCUGGGCAACAUUCCGAGGGGACCGUCCCCUCGGUAAUGGCAAAUUGGACCCA | 0.441
10 | GGCCGGCAUGGUCCCAGCCUCCUCGCUGGCGCCGGCUGGGCAACAUUCCGAGGGGACCGUCCCCUCGGUAAUGGCAAAUAGGACCCA | 0.585
11 | GGCCGGCAUGGUCCCAGCCUCCUCGCUGGCGCCGGCUGGGCAACAUUCCGAGGGGACCGUCCCCUCGGUAAUGGCAAAUCGGACCCA | 0.0719
12 | GGCCGGCAUGGUCCCAGCCUCCUCGCUGGCGCCGGCUGGGCAACAUUCCGAGGGGACCGUCCCCUCGGUAAUGGUGGAUGGGACCCA | 0.0415
13 | GGCCGGCAUGGUCCCAGCCUCCUCGCUGGCGCCGGCUGGGCAACAUUCCGAGGGGACCGUCCCCUCGGUAAUGGUGCAUGGGACCCA | 0.208
14 | GGCCGGCAUGGUCCCAGCCUCCUCGCUGGCGCCGGCUGGGCAACAUUCCGAGGGGACCGUCCCCUCGGUAAUGGCAAAUGGGACACA | 0.904
15 | GGCCGGCAUGGUCCCAGCCUCCUCGCUGGCGCCGGCUGGGCAACAUUCCGAGGGGACCGUCCCCUCGGUAAUGGCAAAUGGGACGCA | 0.962
16 | GGCCGGCAUGGUCCCAGCCUCCUCGCUGGCGCCGGCUGGGCAACAUUCCGAGGGGACCGUCCCCUCGGUAAUGGGGAAGGGGACCCA | 0.0791

Row | Variant | self-cleavage
17 | GGCCGGCAUGGUCCCAGCCUCCUCGCUGGCGCCGGCUGGGCAACAUUCCGAGGGGACCGUCCCCUCGGUAAUGGUGAAUGGGACCAA | 0.111
18 | GGCCGGCAUGGUCCCAGCCUCCUCGCUGGCGCCGGCUGGGCAACAUUCCGAGGGGACCGUCCCCUCGGUAAUGGUGAAUGGGACCCA | 0.19
19 | GGCCGGCAUGGUCCCAGCCUCCUCGCUGGCGCCGGCUGGGCAACAUUCCGAGGGGACCGUCCCCUCGGUAAUGGUGAAUGGGACCCU | 0.185
20 | GGCCGGCAUGGUCCCAGCCUCCUCGCUGGCGCCGGCUGGGCAACAUUCCGAGGGGACCGUCCCCUCGGUAAUGGUGAAUGGGACCCC | 0.161
21 | GGCCGGCAUGGUCCCAGCCUCCUCGCUGGCGCCGGCUGGGCAACAUUCCGAGGGGACCGUCCCCUCGGUAAUGGCAAAUGAGACCCA | 0.332
22 | GGCCGGCAUGGUCCCAGCCUCCUCGCUGGCGCCGGCUGGGCAACAUUCCGAGGGGACCGUCCCCUCGGUAAUGGCAAAUGGGACCCG | 1.01
23 | GGCCGGCAUGGUCCCAGCCUCCUCGCUGGCGCCGGCUGGGCAACAUUCCGAGGGGACCGUCCCCUCGGUAAUGGCAAUUGGGACCCA | 0.673
24 | GGCCGGCAUGGUCCCAGCCUCCUCGCUGGCGCCGGCUGGGCAACAUUCCGAGGGGACCGUCCCCUCGGUAAUGGCAACUGGGACCCA | 0.242
25 | GGCCGGCAUGGUCCCAGCCUCCUCGCUGGCGCCGGCUGGGCAACAUUCCGAGGGGACCGUCCCCUCGGUAAUGGCAAGUGGGACCCA | 0.816
26 | GGCCGGCAUGGUCCCAGCCUCCUCGCUGGCGCCGGCUGGGCAACAUUCCGAGGGGACCGUCCCCUCGGUAAUGGCAAAUGGGAACCA | 0.958
27 | GGCCGGCAUGGUCCCAGCCUCCUCGCUGGCGCCGGCUGGGCAACAUUCCGAGGGGACCGUCCCCUCGGUAAUGGUGAAUGGGUCCCA | 0.199
28 | GGCCGGCAUGGUCCCAGCCUCCUCGCUGGCGCCGGCUGGGCAACAUUCCGAGGGGACCGUCCCCUCGGUAAUGGUGAAUGGGCCCCA | 0.128
29 | GGCCGGCAUGGUCCCAGCCUCCUCGCUGGCGCCGGCUGGGCAACAUUCCGAGGGGACCGUCCCCUCGGUAAUGGUGAAUGGUACCCA | 0.296
30 | GGCCGGCAUGGUCCCAGCCUCCUCGCUGGCGCCGGCUGGGCAACAUUCCGAGGGGACCGUCCCCUCGGUAAUGGUCAAUGGGACCCA | 0.271
31 | GGCCGGCAUGGUCCCAGCCUCCUCGCUGGCGCCGGCUGGGCAACAUUCCGAGGGGACCGUCCCCUCGGUAAUGGUAAAUGGGACCCA | 0.0852
32 | GGCCGGCAUGGUCCCAGCCUCCUCGCUGGCGCCGGCUGGGCAACAUUCCGAGGGGACCGUCCCCUCGGUAAUGGCAAAUGGGACCGA | 1.08
